Data on 1 molecule can be found in publication doi:10.1101/2024.06.19.598823 (bioRxiv, 2024).

This test deals with RBD protein of SARS-like CoV WIV16 (Bat SARS-like coronavirus WIV16). In words: ELISA. (In general: ELISA stands for enzyme-linked immunosorbent assay.)

B1: nanobody 7F (VHH)
VHH: EVQLVESGGGLVEAGGSLRLSCVASGLTFSDYTMAWFRQVPGQEREFVSHIGWGGSETYYADSVKGRFTISRDNAKNAMYLQMNELKPDDTAVYYCAADRGSSFYYVRESEYTFWGQGTQVTVSS
As for B1, the binding result was “binds”.
